B1: Myosin VI FL-SNAP (natural protein, human, UniProt Q9UM54 1-1294, looked up)
chain: MEDGKPVWAPHPTDGFQMGNIVDIGPDSLTIEPLNQKGKTFLALINQVFPAEEDSKKDVEDNCSLMYLNEATLLHNIKVRYSKDRIYTYVANILIAVNPYFDIPKIYSSEAIKSYQGKSLGTRPPHVFAIADKAFRDMKVLKMSQSIIVSGESGAGKTENTKFVLRYLTESYGTGQDIDDRIVEANPLLEAFGNAKTVRNNNSSRFGKFVEIHFNEKSSVVGGFVSHYLLEKSRICVQGKEERNYHIFYRLCAGASEDIREKLHLSSPDNFRYLNRGCTRYFANKETDKQILQNRKSPEYLKAGSMKDPLLDDHGDFIRMCTAMKKIGLDDEEKLDLFRVVAGVLHLGNIDFEEAGSTSGGCNLKNKSAQSLEYCAELLGLDQDDLRVSLTTRVMLTTAGGTKGTVIKVPLKVEQANNARDALAKTVYSHLFDHVVNRVNQCFPFETSSYFIGVLDIAGFEYFEHNSFEQFCINYCNEKLQQFFNERILKEEQELYQKEGLGVNEVHYVDNQDCIDLIEAKLVGILDILDEENRLPQPSDQHFTSAVHQKHKDHFRLTIPRKSKLAVHRNIRDDEGFIIRHFAGAVCYETTQFVEKNNDALHMSLESLICESRDKFIRELFESSTNNNKDTKQKAGKLSFISVGNKFKTQLNLLLDKLRSTGASFIRCIKPNLKMTSHHFEGAQILSQLQCSGMVSVLDLMQGGYPSRASFHELYNMYKKYMPDKLARLDPRLFCKALFKALGLNENDYKFGLTKVFFRPGKFAEFDQIMKSDPDHLAELVKRVNHWLTCSRWKKVQWCSLSVIKLKNKIKYRAEACIKMQKTIRMWLCKRRHKPRIDGLVKVGTLKKRLDKFNEVVSVLKDGKPEMNKQIKNLEISIDTLMAKIKSTMMTQEQIQKEYDALVKSSEELLSALQKKKQQEEEAERLRRIQEEMEKERKRREEDEKRRRKEEEERRMKLEMEAKRKQEEEERKKREDDEKRIQAEVEAQLARQKEEESQQQAVLEQERRDRELALRIAQSEAELISDEAQADLALRRSLDSYPVSKNDGTRPKMTPEQMAKEMSEFLSRGPAVLATKAAAGTKKYDLSKWKYAELRDTINTSCDIELLAACREEFHRRLKVYHAWKSKNKKRNTETEQRAPKSVTDYDFAPFLNNSPQQNPAAQIPARQREIEMNRQQRFFRIPFIRPADQYKDPQSKKKGWWYAHFDGPWIARQMELHPDKPPILLVAGKDDMEMCELNLEETGLTRKRGAEILPRQFEEIWERCGGIQYLQNAIESRQARPTYATAMLQSLLK
modifications: Cy3-conjugated (single-molecule TIRF assay); benzylguanine-labeled DNA oligo on the SNAP tag (nanotube and origami assays)
B2: GIPC MIR, C-terminal SNAP-tagged (domain or fragment, human, UniProt O14908 261-333, looked up)
chain: EEKAIEKVDDLLESYMGIRDTELAATMVELGKDKRNPDELAEALDERLGDFAFPDEFVFDVWGAIGDAKVGRY
modifications: benzylguanine-labeled DNA oligo on the SNAP tag (DNA origami scaffold assay)

Key:
[1] = target: mCerulean (mCer)-tagged myosin VI CBD (human) (UniProt Q9UM54); test: FRET or BRET; bimolecular FRET in solution; CBD-mCer held constant at 30 nM, increasing GIPC MIR–mCit titrated; excitation 430 nm; ΔFRET fit to a hyperbolic dose–response; three protein preparations
[2] = target: B2; test: cell-based or functional assay
[3] = target: B1; test: cell-based or functional assay

With “mCitrine (mCit)-tagged GIPC MIR (from UniProt O14908 261-333) (domain or fragment)” as the molecule, how does the Kd [1] read?
The Kd was 120 nM.

With B1 as the molecule, how does the “speed of DNA origami scaffolds on single actin filaments, myosin VI recruited through GIPC MIR against direct attachment” value [2] read?
Its value is 2.3 fold.

Which “actin gliding speed in the DNA nanotube assay (Myosin VI FL-SNAP patterned at 14 or 28 nm spacing), with 2 μM GIPC MIR against without” value [3] does the source give for B2 here?
The value was 2.5 fold.
